From PMC7144210

How the values were obtained:
[1] = target: Fc-tagged fibre 1 of the novel FAdV-4 (fowl adenovirus serotype 4 (FAdV-4), strain HLJFAd15)
[2] = target: Fc-tagged fibre 1 of the novel FAdV-4 (fowl adenovirus serotype 4 (FAdV-4), strain HLJFAd15); remark: listed apart in the source

Substance	block of FAdV-4 infectivity in LMH cells (qPCR at 24 hpi) after pre-incubation of the virus with 12.5 or 25.0 ng/μl D2-CAR; 78% at 12.5 ng/μl, 99.9% at 25 ng/μl [1]	block of FAdV-4 infection of LMH cells (qPCR at 24 hpi) after pre-incubation of the virus with 3.125–12.5 ng/μl soluble CAR protein; Fc protein as negative control [2]
D2 domain of chicken CAR, soluble, His-tagged (domain or fragment)	99.9%	–
Fc-tagged CAR protein, soluble (Fc fusion)	–	76 to 80%
